Residue numbers refer to the chain shown, from its start. Read-outs that look alike come from different tables or passages of the source.
B1: 20E6_H0.2aL1_hIgG1 VH_R50A (antibody, V domains shown)
VH: EVQLVQSGAEVKKPGASVKVSCKASGYTFTSYWMHWVRQAPGQGLEWMGAIDPQSGGIKYAQKFQGRATLTVDTSTSTAYMELSRLRSDDTAVYYCARWDYGGYFDVWGQGTLVTVSS
VL: DIQMTQSPSSLSASVGDRVTITCRASQDITNYLNWYQQKPGKAVKLLIYYTSRLHSGVPSRFSGSGSGTDYTLTISSLQPEDFATYFCQQGDTLPWTFGQGTKLEIKR
B2: 20E6_H0.2aL1_hIgG1 VH_G102A (antibody, V domains shown)
VH: B1 VH with A50R, G102A
VL: B1 VL
B3: 20E6_H0.2aL1_hIgG1 VL_Q90A (antibody, V domains shown)
VH: B1 VH with A50R
VL: B1 VL with Q90A
B4: 20E6_H0.2aL1_hIgG1 VL_P95A (antibody, V domains shown)
VH: B1 VH with A50R
VL: B1 VL with P95A
B5: 20E6_H0.2aL1_hIgG1 VL_Y50A (antibody, V domains shown)
VH: B1 VH with A50R
VL: B1 VL with Y50A
B6: 20E6_H0.2aL1_hIgG1 VL_A25G (antibody, V domains shown)
VH: B1 VH with A50R
VL: B1 VL with A25G
B7: 20E6_H0.2aL1_hIgG1 VL_Y32A (antibody, V domains shown)
VH: B1 VH with A50R
VL: B1 VL with Y32A
B8: 20E6_H0.2aL1_hIgG1 VH_F105A (antibody, V domains shown)
VH: B1 VH with A50R, F105A
VL: B1 VL
B9: humanized 20E6 F(ab′) binding protein (Fab, V domains shown)
VH: B1 VH with A50R
VL: B1 VL
B10: 20E6_H0.2aL1_hIgG1 VL_L94A (antibody, V domains shown)
VH: B1 VH with A50R
VL: B1 VL with L94A
B11: 20E6_H0.2aL1_hIgG1 VH_W99A (antibody, V domains shown)
VH: B1 VH with A50R, W99A
VL: B1 VL
B12: 20E6_H0.2aL1_hIgG1 VL_D28A (antibody, V domains shown)
VH: B1 VH with A50R
VL: B1 VL with D28A
B13: 20E6_H0.2aL1_hIgG1 VL_T97A (antibody, V domains shown)
VH: B1 VH with A50R
VL: B1 VL with T97A
B14: 20E6_H0.2aL1_hIgG1 VH_Y104A (antibody, V domains shown)
VH: B1 VH with A50R, Y104A
VL: B1 VL
B15: 20E6_H0.2aL1_hIgG1 VH_G103A (antibody, V domains shown)
VH: B1 VH with A50R, G103A
VL: B1 VL
B16: 20E6_H0.2aL1_hIgG1 VL_G91A (antibody, V domains shown)
VH: B1 VH with A50R
VL: B1 VL with G91A
B17: 20E6_H0.2aL1_hIgG1 VL_W96A (antibody, V domains shown)
VH: B1 VH with A50R
VL: B1 VL with W96A
B18: 20E6_H0.2aL1_hIgG1 VL_N34A (antibody, V domains shown)
VH: B1 VH with A50R
VL: B1 VL with N34A
B19: 20E6_H0.2aL1_hIgG1 VL_Q27A (antibody, V domains shown)
VH: B1 VH with A50R
VL: B1 VL with Q27A
B20: 20E6_H0.2aL1_hIgG1 VL_L33A (antibody, V domains shown)
VH: B1 VH with A50R
VL: B1 VL with L33A
B21: 20E6_H0.2aL1_hIgG1 VH_Y101A (antibody, V domains shown)
VH: B1 VH with A50R, Y101A
VL: B1 VL
B22: 20E6_H0.2aL1_hIgG1 VL_D92A (antibody, V domains shown)
VH: B1 VH with A50R
VL: B1 VL with D92A
B23: 28G11_(hyb) (antibody, mouse IgG2b, kappa, V domains shown)
VH: EVKLVESGGGLVQPGGSLSLSCAASGFTFTDYYMSWVRQPPGKALEWLGFIRNKPNGYTTEYSASVKGRFTISRDNSQSILYLQMNVLRAEDSATYYCARYTGGGYFDYWGQGTTLTVSS
VL: DIQMTQTTSSLSASLGDRLTISCRASQDISNYLNWYQQKPDGTVKLLIYYTSRLHSGVPSRFSGSGSGTDYSLTISNLEQADIATYFCQQGDTLPWTFGGGTKLEIKR

Tests used:
[1] = target: biotinylated human LAP-TGFβ1 (Example 14) (human) (UniProt P01137); test: BLI, antigen on tip, CHO supernatant; ratio to wild type
[2] = target: fusion protein of a human IgG1 Fc domain and human LAP-TGFβ1 (human) (UniProt P01137); test: SPR (Biacore T200), antigen-Fc captured, 1:1 model
[3] = target: fusion protein of a human IgG1 Fc domain and cynomolgus monkey LAP-TGFβ1 (human; cynomolgus monkey); test: SPR (Biacore T200), antigen-Fc captured, 1:1 model
[4] = target: fusion protein of a human IgG1 Fc domain and human LAP-TGFβ1 (human) (UniProt P01137); test: SPR (Biacore T200), antigen-Fc captured, 1:1 model; remark: listed apart in the source
[5] = target: fusion protein of a human IgG1 Fc domain and mouse LAP-TGFβ1 (human; mouse) (UniProt P04202); test: SPR (Biacore T200), antigen-Fc captured, 1:1 model
[6] = target: fusion protein of a human IgG1 Fc domain and rat LAP-TGFβ1 (human; rat) (UniProt P17246); test: SPR (Biacore T200), antigen-Fc captured, 1:1 model
[7] = target: human-chicken LAP-TGFβ1 chimera #1 on HT1080 cells (human/chicken chimera); test: flow cytometry, transduced HT1080 cells
[8] = target: human-chicken LAP-TGFβ1 chimera #2 on HT1080 cells (human/chicken chimera); test: flow cytometry, transduced HT1080 cells
human-chicken LAP-TGFβ1 chimera #2 on HT1080 cells (human/chicken chimera), sequence (chain, as listed by the source mutant limits assumed): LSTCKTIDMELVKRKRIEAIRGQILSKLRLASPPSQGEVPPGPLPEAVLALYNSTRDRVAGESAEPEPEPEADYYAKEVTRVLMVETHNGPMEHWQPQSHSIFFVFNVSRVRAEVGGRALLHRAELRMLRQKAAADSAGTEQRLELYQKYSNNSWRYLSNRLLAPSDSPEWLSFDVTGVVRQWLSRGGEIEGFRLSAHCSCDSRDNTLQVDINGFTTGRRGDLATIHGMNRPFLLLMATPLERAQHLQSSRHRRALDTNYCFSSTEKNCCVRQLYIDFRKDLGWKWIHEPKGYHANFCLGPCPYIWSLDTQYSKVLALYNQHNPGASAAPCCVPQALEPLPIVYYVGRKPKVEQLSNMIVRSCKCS

fusion protein of a human IgG1 Fc domain and mouse LAP-TGFβ1 (human; mouse), sequence (P04202 30-390 limits assumed): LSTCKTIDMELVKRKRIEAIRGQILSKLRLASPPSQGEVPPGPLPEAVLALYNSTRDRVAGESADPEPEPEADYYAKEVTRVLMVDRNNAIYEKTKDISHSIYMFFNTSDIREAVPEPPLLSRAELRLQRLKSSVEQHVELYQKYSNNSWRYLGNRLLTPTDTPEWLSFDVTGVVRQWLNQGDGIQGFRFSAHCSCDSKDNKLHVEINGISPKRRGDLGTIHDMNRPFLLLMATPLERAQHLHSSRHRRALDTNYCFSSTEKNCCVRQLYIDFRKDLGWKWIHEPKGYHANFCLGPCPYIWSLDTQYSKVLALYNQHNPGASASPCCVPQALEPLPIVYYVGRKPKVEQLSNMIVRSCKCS
biotinylated human LAP-TGFβ1 (Example 14) (human), sequence (P01137 30-390 limits assumed): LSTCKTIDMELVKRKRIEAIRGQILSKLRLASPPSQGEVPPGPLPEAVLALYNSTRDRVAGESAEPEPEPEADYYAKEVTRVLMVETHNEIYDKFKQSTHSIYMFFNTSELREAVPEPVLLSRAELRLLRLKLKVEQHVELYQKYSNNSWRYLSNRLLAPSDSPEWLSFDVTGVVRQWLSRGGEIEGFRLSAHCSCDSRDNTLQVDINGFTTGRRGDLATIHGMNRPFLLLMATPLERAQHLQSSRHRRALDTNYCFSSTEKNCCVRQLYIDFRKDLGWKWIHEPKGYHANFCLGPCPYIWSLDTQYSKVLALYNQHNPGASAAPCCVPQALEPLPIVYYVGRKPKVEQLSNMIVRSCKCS
fusion protein of a human IgG1 Fc domain and human LAP-TGFβ1 (human), sequence (P01137 30-390 limits assumed): as above
fusion protein of a human IgG1 Fc domain and rat LAP-TGFβ1 (human; rat), sequence (P17246 30-390 limits assumed): as the sequence (P04202 30-390 limits assumed) above, with E93D, S99T, L131F, S134T, K202V counted along it
human-chicken LAP-TGFβ1 chimera #1 on HT1080 cells (human/chicken chimera), sequence (chain, as listed by the source mutant limits assumed): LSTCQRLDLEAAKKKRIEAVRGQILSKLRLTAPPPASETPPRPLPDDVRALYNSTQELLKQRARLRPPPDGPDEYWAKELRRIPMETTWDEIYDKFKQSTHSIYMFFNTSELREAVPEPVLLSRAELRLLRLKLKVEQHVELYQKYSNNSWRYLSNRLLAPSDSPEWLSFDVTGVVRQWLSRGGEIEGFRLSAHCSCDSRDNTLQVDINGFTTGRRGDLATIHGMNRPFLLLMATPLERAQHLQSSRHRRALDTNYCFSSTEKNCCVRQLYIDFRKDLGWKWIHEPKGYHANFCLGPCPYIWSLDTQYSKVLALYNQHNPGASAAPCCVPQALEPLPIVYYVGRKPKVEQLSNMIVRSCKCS

Row | KD,WT/KD,Ala [1] | further results | Binder
1 | 0 | – | B1
2 | 0 | – | B2
3 | 0 | – | B3
4 | 0 | – | B4
5 | 0 | – | B5
6 | 0.09 | – | B6
7 | 0 | – | B7
8 | 0 | – | B8
9 | – | Kd [2]: 40.8 nM; koff [2]: 0.08 s⁻¹; kon [2]: 1.96e+06 M⁻¹ s⁻¹; Kd [3]: 60.3 nM; koff [3]: 0.095 s⁻¹; kon [3]: 1.58e+06 M⁻¹ s⁻¹; Kd [4]: 49.5 nM; koff [4]: 0.0939 s⁻¹; kon [4]: 1.91e+06 M⁻¹ s⁻¹; Kd [5]: 48.3 nM; koff [5]: 0.079 s⁻¹; kon [5]: 1.64e+06 M⁻¹ s⁻¹; Kd [6]: 59.4 nM; koff [6]: 0.106 s⁻¹; kon [6]: 1.79e+06 M⁻¹ s⁻¹ | B9
10 | 0 | – | B10
11 | 0 | – | B11
12 | 0 | – | B12
13 | 0.01 | – | B13
14 | 0 | – | B14
15 | 0 | – | B15
16 | 0 | – | B16
17 | 0 | – | B17
18 | 0.07 | – | B18
19 | 0.03 | – | B19
20 | 0.08 | – | B20
21 | 0 | – | B21
22 | 0 | – | B22
23 | – | % GFP+/APC+ cells [7]: 0.2%; % GFP+/APC+ cells [8]: 0.2% | B23
